In patent US20250027071A1:
Read-outs that look alike come from different tables or passages of the source.

B1: truncated human wild-type Lipocalin-type prostaglandin D synthase (L-PGDS) (enzyme, UniProt P41222 23-190, looked up)
Prostaglandin-H2 D-isomerase: APEAQVSVQPNFQQDKFLGRWFSAGLASNSSWLREKKAALSMCKSVVAPATDGGLNLTSTFLRKNQCETRTMLLQPAGSLGSYSYRSPHWGSTYSVSVVETDYDQYALLYSQGSKGPGEDFRMATLYSRTQTPRAELKEKFTAFCKAQGFTEDTIVFLPQTDKCMTEQ
modifications: C-terminal His6 tag

Legend:
Aβ (1-40) peptide [1] = test system: Aβ (1-40) peptide
[2] = test system: TGFBIp G623R peptide (23-amino acid peptide from the 4th FAS1 domain of TGFBIp with the substitution G623R)
[3] = target: TGFBIp G623R peptide (23-amino acid peptide from the 4th FAS1 domain of TGFBIp with the substitution G623R); assay: cell-based or functional assay
Aβ (1-40) peptide [4] = assay: cell-based or functional assay
[5] = target: TGFBIp G623R peptide (23-amino acid peptide from the 4th FAS1 domain of TGFBIp with the substitution G623R); assay: cell-based or functional assay; remark: listed apart in the source

Molecule	ThT disaggregation assay of mature Aβ (1-40) fibrils, 24 h (Aβ (1-40) peptide [1])	ThT fluorescence relative to untreated G623R fibrils after 48 h (disaggregation assay, 10 µM L-PGDS : 50 µM fibrils) [2]	ThT fluorescence intensity relative to the G623R control after 48 h (fibrillation inhibition assay, 10 µM L-PGDS : 50 µM monomeric peptide) [3]	further results
C65A L-PGDS (C65A single mutant of truncated L-PGDS)	significant (p<0.05) retention of disaggregation activity across all L-PGDS mutants after 24 h of incubation	70.56%±8.18% (SD)	–	–
C65A L-PGDS (C65A single mutant of truncated L-PGDS) (enzyme)	–	–	102%	–
RA L-PGDS (K58R+C65A double mutant of truncated L-PGDS)	significant (p<0.05) retention of disaggregation activity across all L-PGDS mutants after 24 h of incubation	72.78%±20.42% (SD)	–	ThT assay of Tau VK26 aggregation (100 µM peptide with 5 µM or 10 µM RA L-PGDS) (Tau peptide VK26): RA L-PGDS almost completely inhibited the aggregation of the Tau protein; fibril length from TEM micrographs after disaggregation treatment [2]: RA-L-PGDS treatment did indeed produce shorter fibrils as opposed to WT L-PGDS
RA L-PGDS (K58R+C65A double mutant of truncated L-PGDS) (enzyme)	–	–	51.4%	ThT fluorescence relative to Aβ (1-40) control (inhibitory assay, 24 h) (Aβ (1-40) peptide [4]): 96.1%
B1	significant (p<0.05) retention of disaggregation activity across all L-PGDS mutants after 24 h of incubation	68.78%±18.20% (SD)	–	ThT fluorescence intensity relative to the G623R control after 48 h (fibrillation inhibition assay, 10 µM L-PGDS : 50 µM monomeric peptide) [5]: 52.5%
